Measured values reported in patent US20220332804A1 (CSL INNOVATION, published 2022).

Columns and labels:
Assay in all cases: SPR, mAb captured, C2 mutant analyte;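 further: Anti-C2 mAbs captured on goat anti-human IgG Biacore CM5 chips, alanine or serine C2 surface mutants flowed over at 37 °C, double-referenced sensorgrams fitted to a 1:1 binding model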
[1] = target: T1, human C2 T442A (human, UniProt P06681 21-752)
T1 sequence: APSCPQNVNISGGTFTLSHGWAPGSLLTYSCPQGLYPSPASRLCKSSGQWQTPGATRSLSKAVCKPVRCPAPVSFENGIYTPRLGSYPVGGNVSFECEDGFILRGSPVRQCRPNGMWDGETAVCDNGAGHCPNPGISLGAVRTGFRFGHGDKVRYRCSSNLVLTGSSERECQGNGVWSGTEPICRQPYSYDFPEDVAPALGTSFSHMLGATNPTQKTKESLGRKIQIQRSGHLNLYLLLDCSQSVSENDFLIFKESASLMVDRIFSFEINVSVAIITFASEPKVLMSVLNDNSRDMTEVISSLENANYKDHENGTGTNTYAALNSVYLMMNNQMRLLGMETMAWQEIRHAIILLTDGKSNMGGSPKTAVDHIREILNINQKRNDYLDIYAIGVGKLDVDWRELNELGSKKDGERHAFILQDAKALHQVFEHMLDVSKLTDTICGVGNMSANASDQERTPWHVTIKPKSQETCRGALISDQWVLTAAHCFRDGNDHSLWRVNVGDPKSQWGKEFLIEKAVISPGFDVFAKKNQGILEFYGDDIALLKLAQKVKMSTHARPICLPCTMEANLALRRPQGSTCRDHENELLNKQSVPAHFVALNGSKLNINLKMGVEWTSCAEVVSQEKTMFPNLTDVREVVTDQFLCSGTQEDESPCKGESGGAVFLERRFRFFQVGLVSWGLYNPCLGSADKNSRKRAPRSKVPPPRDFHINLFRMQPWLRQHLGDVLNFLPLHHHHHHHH
Procedure: (§1) Surface plasmon resonance (SPR, Biacore) was used for all binding affinity analyses. In brief, goat anti-human IgG was directly immobilised onto the carboxymethyl dextran surface of CM5 sensorchips to approximately 12,000 RU using standard NHS/EDC chemistry at pH 5. The immobilised antibody surface was pre-conditioned with ten injections of polyclonal human IgG (Privigen 60 s) prepared at 1 μg/mL. Ligands (anti-C2 mAbs) were captured at the beginning of each cycle as described below. An adjacent spot or flow cell in which only Polyclonal IgG was capture was used as a reference surface. The goat anti-human IgG Fc antibody surface was regenerate in 100 mM H3PO4, injected for 45 seconds at the end of each cycle. Experiments were performed at 37° C. and the flow rate of each experiment was kept constant at 30 μL/min.
(§2) Sensogram data was double-referenced against a reference anti-IgG surface (i.e. minus anti-C2 mAb) and blank buffer injections obtained within each experiment. The binding data was fit to 1:1 (kinetic or steady-state) model using local Rmax and null refraction index (RI=0) when appropriate. Buffers and solutions were filtered (0.22 μm) prior to use.

[2] = target: T2, human C2 N325A (human, UniProt P06681 21-752)
T2 sequence: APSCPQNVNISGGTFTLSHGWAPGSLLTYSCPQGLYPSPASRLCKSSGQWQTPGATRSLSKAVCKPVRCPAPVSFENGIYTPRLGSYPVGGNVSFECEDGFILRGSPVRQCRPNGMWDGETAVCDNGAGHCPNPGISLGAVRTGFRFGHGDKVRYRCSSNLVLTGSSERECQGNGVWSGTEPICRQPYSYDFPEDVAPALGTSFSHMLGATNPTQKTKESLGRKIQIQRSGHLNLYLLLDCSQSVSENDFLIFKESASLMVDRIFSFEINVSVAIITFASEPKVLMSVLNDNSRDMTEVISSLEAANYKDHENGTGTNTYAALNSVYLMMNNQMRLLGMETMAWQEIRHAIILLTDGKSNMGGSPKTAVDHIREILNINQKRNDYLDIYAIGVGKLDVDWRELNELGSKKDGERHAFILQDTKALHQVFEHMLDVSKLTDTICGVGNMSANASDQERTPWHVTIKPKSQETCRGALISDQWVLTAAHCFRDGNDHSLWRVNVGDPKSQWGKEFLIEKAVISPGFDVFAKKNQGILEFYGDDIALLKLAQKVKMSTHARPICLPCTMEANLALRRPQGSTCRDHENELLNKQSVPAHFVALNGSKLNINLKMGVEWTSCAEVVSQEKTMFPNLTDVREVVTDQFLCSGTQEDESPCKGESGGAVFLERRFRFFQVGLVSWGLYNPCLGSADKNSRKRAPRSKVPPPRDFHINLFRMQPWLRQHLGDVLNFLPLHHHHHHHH
Procedure: as §1, §2

[3] = target: T3, human C2 W420A (human, UniProt P06681 21-752)
T3 sequence: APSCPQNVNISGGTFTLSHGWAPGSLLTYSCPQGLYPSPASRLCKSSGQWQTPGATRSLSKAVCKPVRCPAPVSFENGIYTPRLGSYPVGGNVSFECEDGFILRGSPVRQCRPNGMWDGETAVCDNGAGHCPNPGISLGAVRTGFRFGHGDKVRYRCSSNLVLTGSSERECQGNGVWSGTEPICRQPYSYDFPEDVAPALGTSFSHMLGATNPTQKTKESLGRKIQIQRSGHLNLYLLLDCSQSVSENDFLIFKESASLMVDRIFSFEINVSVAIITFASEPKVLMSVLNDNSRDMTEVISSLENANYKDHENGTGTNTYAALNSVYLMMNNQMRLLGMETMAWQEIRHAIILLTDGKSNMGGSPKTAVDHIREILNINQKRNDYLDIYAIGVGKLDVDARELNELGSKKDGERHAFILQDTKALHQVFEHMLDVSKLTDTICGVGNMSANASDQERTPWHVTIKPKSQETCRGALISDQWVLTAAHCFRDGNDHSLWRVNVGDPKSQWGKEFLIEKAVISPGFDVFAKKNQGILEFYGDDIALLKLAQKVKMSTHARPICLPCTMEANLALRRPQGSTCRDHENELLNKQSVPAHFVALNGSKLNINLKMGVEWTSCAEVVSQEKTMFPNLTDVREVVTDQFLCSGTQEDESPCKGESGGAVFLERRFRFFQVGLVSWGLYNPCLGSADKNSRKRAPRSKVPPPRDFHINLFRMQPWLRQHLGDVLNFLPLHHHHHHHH
Procedure: as §1, §2

[4] = target: T4, human C2 D454A (human, UniProt P06681 21-752)
T4 sequence: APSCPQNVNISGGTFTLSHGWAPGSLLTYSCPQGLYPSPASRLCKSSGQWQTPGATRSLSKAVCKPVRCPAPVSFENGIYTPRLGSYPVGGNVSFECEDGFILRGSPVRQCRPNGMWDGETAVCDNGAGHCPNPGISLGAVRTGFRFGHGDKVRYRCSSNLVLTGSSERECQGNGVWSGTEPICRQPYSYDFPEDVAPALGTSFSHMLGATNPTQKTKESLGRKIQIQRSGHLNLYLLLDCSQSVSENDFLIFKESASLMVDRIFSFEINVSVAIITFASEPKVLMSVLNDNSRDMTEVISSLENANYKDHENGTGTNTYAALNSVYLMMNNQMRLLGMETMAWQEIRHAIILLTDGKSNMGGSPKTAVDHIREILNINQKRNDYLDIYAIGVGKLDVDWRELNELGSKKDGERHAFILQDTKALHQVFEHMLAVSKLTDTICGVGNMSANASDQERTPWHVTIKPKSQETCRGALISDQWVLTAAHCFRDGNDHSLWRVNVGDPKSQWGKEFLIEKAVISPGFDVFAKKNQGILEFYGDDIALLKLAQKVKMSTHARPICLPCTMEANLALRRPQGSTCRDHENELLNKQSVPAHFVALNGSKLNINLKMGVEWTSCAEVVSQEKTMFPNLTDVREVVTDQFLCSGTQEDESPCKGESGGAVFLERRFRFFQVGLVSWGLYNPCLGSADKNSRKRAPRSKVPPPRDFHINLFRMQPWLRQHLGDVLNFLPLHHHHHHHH
Procedure: as §1, §2

B1: RF16-214 (antibody, V domains shown)
VH: EVQLLESGGGLVQPGGSLRLSCAASGFTFSWYQMMWVRQAPGKGLEWVSRIYPSGGGTAYADSVKGRFTISRDNSKNTLYLQMNSLRAEDTAVYYCARDAGYGDNWGQGTLVTVSS
VL: QSALTQPPSVSVSPGQTASITCSGDKLGEKYASWYQQKAGQSPVMVIYQDRKRPSGIPERFSGSNSGNTATLTISGTQAMDEADYYCQAWDTRAVVFGGGTKLTVLG
- Kd [1]: 70.7 nM
- Kd [2]: 328 nM
- Kd [3]: 34.9 nM
- Kd [4]: 111 nM
